Experimental data reported in publication PMC5613972, “A specific single-stranded DNA induces a distinct conformational change in the nucleoid-associated protein HU”.

T1: TtHU (Thermus thermophilus, UniProt P19436 2-97)
T1 sequence: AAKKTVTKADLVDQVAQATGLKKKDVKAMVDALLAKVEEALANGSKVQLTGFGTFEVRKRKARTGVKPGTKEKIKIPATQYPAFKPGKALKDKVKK


Target: T1, TtHU
Assay: EMSA; 1 uM DNA; EMSA: 20 mM Tris-HCl pH 7.5, 100 mM KCl, 37 °C, 1 h; CD: 20 mM phosphate pH 7.2, 100 mM KCl, 20 °C, 10 uM TtHU
Details: protein: recombinant; tags: none stated (pET-11a); chain copies: 2; duplex of complementary oligos

Binder	binding result
oligo AB (dsDNA) DNA 1: GGCCCCAGTGCTGCAATGATACCGCGAGAC DNA 2: GTCTCGCGGTATCATTGCAGCACTGGGGCC	binds
oligo CD (dsDNA) DNA 1: ATGACAACTAAAGCAACACCCAAAACA DNA 2: TGTTTTGGGTGTTGCTTTAGTTGTCAT	binds

Same assay, conditions: protein: recombinant; tags: none stated (pET-11a); chain copies: 2; single strand

Binder	binding result
GTCTCGCGGTATCATTGCAGCACTGGGGCC (ssDNA) [oligo B]	binds
GGCCCCAGTGCTGCAATGATACCGCGAGAC (ssDNA) [oligo A]	binds
ATGACAACTAAAGCAACACCCAAAACA (ssDNA) [oligo C]	binds
TGTTTTGGGTGTTGCTTTAGTTGTCAT (ssDNA) [oligo D]	binds
